System: SphI restriction endonuclease (recombinant, NEB#808 / pEGsph50-2; gene within SEQ ID NO:2) (Streptomyces phaeochromogenes)
Test: cleavage_in_vitro
Conditions: 150 units, 4 h, 37 C; nonspecific endonuclease control

## phiX174 RFI DNA
  activity (% converted to RF II): < 25

Source: patent publication US5262318
